The results in this text go back to US20150344570A1 (published 2015).

The target in one experiment is T1, FcγRIIb (human, UniProt P31994 43-217).
T1 construct: extracellular domain; also called FcgRIIb; 2b
T1 sequence (looked up): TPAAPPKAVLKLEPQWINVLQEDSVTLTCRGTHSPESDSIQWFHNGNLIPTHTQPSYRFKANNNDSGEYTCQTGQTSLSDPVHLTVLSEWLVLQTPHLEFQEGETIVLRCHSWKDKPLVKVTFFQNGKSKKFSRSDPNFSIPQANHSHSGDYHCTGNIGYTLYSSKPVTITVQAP
Nature of the experiment: SPR (Biacore), relative binding. A general note: In SPR one partner is held on a chip, and binding of the other changes the refractive index at the surface.

A further experiment addresses T2, FcγRIIIa (human, UniProt P08637 17-208).
T2 construct: extracellular domain; also called FcgRIIIa; 3a
Nature of the experiment: SPR (Biacore), relative binding.

T2 sequence (P08637 17-208): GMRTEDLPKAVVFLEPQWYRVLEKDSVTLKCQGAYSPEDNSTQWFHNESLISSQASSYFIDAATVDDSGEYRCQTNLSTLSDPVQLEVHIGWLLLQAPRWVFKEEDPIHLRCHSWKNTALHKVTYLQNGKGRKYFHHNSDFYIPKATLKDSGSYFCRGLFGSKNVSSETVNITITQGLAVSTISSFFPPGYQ

B1: GpH7-A5/GpH7-B3 variant A327_07I/GpL16-k0 (antibody, human IgG1, kappa)
heavy 1: not shown
heavy 2: not shown
light: DIVMTQSPLSLPVTPGEPASISCQASESLVHSNRNTYLHWYLQKPGQSPQLLIYKVSNRFSGVPDRFSGSGSGTDFTLKISRVEAEDVGVYYCSQNTHVPPTFGQGTKVEIERTVAAPSVFIFPPSDEQLKSGTASVVCLLNNFYPREAKVQWKVDNALQSGNSQESVTEQDSKDSTYSLSSTLTLSKADYEKHKVYACEVTHQGLSSPVTKSFNRGEC
notes: mutation in the GpH7-B3 chain only; also called He Ab
B1: the He/Con_2b with FcγRIIb is 127 % of GpH7-A5/GpH7-B3/GpL16-k0. Besides, the He/Con_3a in the experiment with FcγRIIIa was 42.4 % of GpH7-A5/GpH7-B3/GpL16-k0.

B2: GpH7-A5/GpH7-B3 variant L328_14T/GpL16-k0 (antibody, human IgG1, kappa)
heavy 1: not shown
heavy 2: not shown
light: DIVMTQSPLSLPVTPGEPASISCQASESLVHSNRNTYLHWYLQKPGQSPQLLIYKVSNRFSGVPDRFSGSGSGTDFTLKISRVEAEDVGVYYCSQNTHVPPTFGQGTKVEIERTVAAPSVFIFPPSDEQLKSGTASVVCLLNNFYPREAKVQWKVDNALQSGNSQESVTEQDSKDSTYSLSSTLTLSKADYEKHKVYACEVTHQGLSSPVTKSFNRGEC
notes: as for B1
Turning to B2, the He/Con_2b with FcγRIIb was 141 % of GpH7-A5/GpH7-B3/GpL16-k0. Further, in the experiment with FcγRIIIa, the He/Con_3a is 75.3 % of GpH7-A5/GpH7-B3/GpL16-k0.

B3: GpH7-A5/GpH7-B3 variant L328_13S/GpL16-k0 (antibody, human IgG1, kappa)
heavy 1: not shown
heavy 2: not shown
light: DIVMTQSPLSLPVTPGEPASISCQASESLVHSNRNTYLHWYLQKPGQSPQLLIYKVSNRFSGVPDRFSGSGSGTDFTLKISRVEAEDVGVYYCSQNTHVPPTFGQGTKVEIERTVAAPSVFIFPPSDEQLKSGTASVVCLLNNFYPREAKVQWKVDNALQSGNSQESVTEQDSKDSTYSLSSTLTLSKADYEKHKVYACEVTHQGLSSPVTKSFNRGEC
notes: as for B1
As to B3, the He/Con_2b with FcγRIIb was 149 % of GpH7-A5/GpH7-B3/GpL16-k0. Besides, in the experiment with FcγRIIIa, the He/Con_3a is 71.7 % of GpH7-A5/GpH7-B3/GpL16-k0.

B4: GpH7-A5/GpH7-B3 variant L328_09D/GpL16-k0 (antibody, human IgG1, kappa)
heavy 1: not shown
heavy 2: not shown
light: DIVMTQSPLSLPVTPGEPASISCQASESLVHSNRNTYLHWYLQKPGQSPQLLIYKVSNRFSGVPDRFSGSGSGTDFTLKISRVEAEDVGVYYCSQNTHVPPTFGQGTKVEIERTVAAPSVFIFPPSDEQLKSGTASVVCLLNNFYPREAKVQWKVDNALQSGNSQESVTEQDSKDSTYSLSSTLTLSKADYEKHKVYACEVTHQGLSSPVTKSFNRGEC
notes: as for B1
As to B4, the He/Con_2b in the experiment with FcγRIIb was 199 % of GpH7-A5/GpH7-B3/GpL16-k0. The He/Con_3a with FcγRIIIa was 47.8 % of GpH7-A5/GpH7-B3/GpL16-k0.

B5: GpH7-A5/GpH7-B3 variant L328_03V/GpL16-k0 (antibody, human IgG1, kappa)
heavy 1: not shown
heavy 2: not shown
light: DIVMTQSPLSLPVTPGEPASISCQASESLVHSNRNTYLHWYLQKPGQSPQLLIYKVSNRFSGVPDRFSGSGSGTDFTLKISRVEAEDVGVYYCSQNTHVPPTFGQGTKVEIERTVAAPSVFIFPPSDEQLKSGTASVVCLLNNFYPREAKVQWKVDNALQSGNSQESVTEQDSKDSTYSLSSTLTLSKADYEKHKVYACEVTHQGLSSPVTKSFNRGEC
notes: as for B1
B5: the He/Con_2b with FcγRIIb is 126 % of GpH7-A5/GpH7-B3/GpL16-k0. Moreover, the He/Con_3a in the experiment with FcγRIIIa is 78.7 % of GpH7-A5/GpH7-B3/GpL16-k0.

B6: GpH7-A5/GpH7-B3 variant L328_02A/GpL16-k0 (antibody, human IgG1, kappa)
heavy 1: not shown
heavy 2: not shown
light: DIVMTQSPLSLPVTPGEPASISCQASESLVHSNRNTYLHWYLQKPGQSPQLLIYKVSNRFSGVPDRFSGSGSGTDFTLKISRVEAEDVGVYYCSQNTHVPPTFGQGTKVEIERTVAAPSVFIFPPSDEQLKSGTASVVCLLNNFYPREAKVQWKVDNALQSGNSQESVTEQDSKDSTYSLSSTLTLSKADYEKHKVYACEVTHQGLSSPVTKSFNRGEC
notes: as for B1
On to B6, for which the He/Con_2b with FcγRIIb was 144 % of GpH7-A5/GpH7-B3/GpL16-k0. For the same molecule, the He/Con_3a with FcγRIIIa was 79.1 % of GpH7-A5/GpH7-B3/GpL16-k0.

B7: GpH7-A5/GpH7-B3 variant L328_15Y/GpL16-k0 (antibody, human IgG1, kappa)
heavy 1: not shown
heavy 2: not shown
light: DIVMTQSPLSLPVTPGEPASISCQASESLVHSNRNTYLHWYLQKPGQSPQLLIYKVSNRFSGVPDRFSGSGSGTDFTLKISRVEAEDVGVYYCSQNTHVPPTFGQGTKVEIERTVAAPSVFIFPPSDEQLKSGTASVVCLLNNFYPREAKVQWKVDNALQSGNSQESVTEQDSKDSTYSLSSTLTLSKADYEKHKVYACEVTHQGLSSPVTKSFNRGEC
notes: as for B1
For B7, the He/Con_2b with FcγRIIb was 193 % of GpH7-A5/GpH7-B3/GpL16-k0. In the experiment with FcγRIIIa, the He/Con_3a was 68.3 % of GpH7-A5/GpH7-B3/GpL16-k0.

B8: GpH7-A5/GpH7-B3 variant K334_12R/GpL16-k0 (antibody, human IgG1, kappa)
heavy 1: not shown
heavy 2: not shown
light: DIVMTQSPLSLPVTPGEPASISCQASESLVHSNRNTYLHWYLQKPGQSPQLLIYKVSNRFSGVPDRFSGSGSGTDFTLKISRVEAEDVGVYYCSQNTHVPPTFGQGTKVEIERTVAAPSVFIFPPSDEQLKSGTASVVCLLNNFYPREAKVQWKVDNALQSGNSQESVTEQDSKDSTYSLSSTLTLSKADYEKHKVYACEVTHQGLSSPVTKSFNRGEC
notes: as for B1
For the molecule B8, in the experiment with FcγRIIb, the He/Con_2b was 111 % of GpH7-A5/GpH7-B3/GpL16-k0. In the experiment with FcγRIIIa, the He/Con_3a is 90.8 % of GpH7-A5/GpH7-B3/GpL16-k0.

B9: GpH7-A5/GpH7-B3 variant A327_10E/GpL16-k0 (antibody, human IgG1, kappa)
heavy 1: not shown
heavy 2: not shown
light: DIVMTQSPLSLPVTPGEPASISCQASESLVHSNRNTYLHWYLQKPGQSPQLLIYKVSNRFSGVPDRFSGSGSGTDFTLKISRVEAEDVGVYYCSQNTHVPPTFGQGTKVEIERTVAAPSVFIFPPSDEQLKSGTASVVCLLNNFYPREAKVQWKVDNALQSGNSQESVTEQDSKDSTYSLSSTLTLSKADYEKHKVYACEVTHQGLSSPVTKSFNRGEC
notes: as for B1
Consider B9, for which the He/Con_2b in the experiment with FcγRIIb was 140 % of GpH7-A5/GpH7-B3/GpL16-k0. Further, the He/Con_3a in the experiment with FcγRIIIa was 68.6 % of GpH7-A5/GpH7-B3/GpL16-k0.
